Target: T1, G-protein Estrogen Receptor 1 (GPER1) (human (endogenous in SKBR3), UniProt Q99527 1-375)
T1 construct: Endogenous protein precipitated and detected with mouse monoclonal anti-human GPER1 (clone 2F2); also called GPR30; source: endogenous, SKBR3 cells (fixed cells; whole-cell extract)
Test: proximity ligation; Duolink In Situ, bright field; fixed SKBR3 cells, endogenous proteins; rabbit polyclonal anti-ERα36 and mouse monoclonal anti-GPER1; cells treated with E2 (10^-7 M) and/or LPS
Conditions: partners not purified

T1 sequence (Q99527 whole entry): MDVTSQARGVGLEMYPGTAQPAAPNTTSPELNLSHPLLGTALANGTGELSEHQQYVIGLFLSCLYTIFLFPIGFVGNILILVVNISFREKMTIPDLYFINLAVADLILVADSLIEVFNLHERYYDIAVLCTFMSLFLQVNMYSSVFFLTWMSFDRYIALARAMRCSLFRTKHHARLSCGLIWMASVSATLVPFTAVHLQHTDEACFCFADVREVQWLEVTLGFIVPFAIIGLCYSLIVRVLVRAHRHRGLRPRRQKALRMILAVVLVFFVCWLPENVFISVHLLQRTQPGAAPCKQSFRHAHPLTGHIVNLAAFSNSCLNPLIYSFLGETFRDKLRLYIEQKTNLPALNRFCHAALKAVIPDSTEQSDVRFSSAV

- fold increase of interacting pairs (PLA dots) with LPS: ~5 fold
B1: estrogen receptor alpha 36 (ERα36) (receptor, human (endogenous in SKBR3), UniProt P03372-4 1-310, looked up)
chain: MAMESAKETRYCAVCNDYASGYHYGVWSCEGCKAFFKRSIQGHNDYMCPATNQCTIDKNRRKSCQACRLRKCYEVGMMKGGIRKDRRGGRMLKHKRQRDDGEGRGEVGSAGDMRAANLWPSPLMIKRSKKNSLALSLTADQMVSALLDAEPPILYSEYDPTRPFSEASMMGLLTNLADRELVHMINWAKRVPGFVDLTLHDQVHLLECAWLEILMIGLVWRSMEHPGKLLFAPNLLLDRNQGKCVEGMVEIFDMLLATSSRFRMMNLQGEEFVCLKSIILLNSGISHVEAKKRILNLHPKIFGNKWFPRV
notes: called estrogen receptor isoform 4 in the NCBI database; Endogenous protein detected with a rabbit polyclonal anti-ERα36 antibody; also called ERa36; estrogen receptor isoform 4; source: endogenous, SKBR3 cells (fixed cells; whole-cell extract)

From article PMC8303269, “ERα36–GPER1 Collaboration Inhibits TLR4/NFκB-Induced Pro-Inflammatory Activity in Breast Cancer Cells” (International Journal of Molecular Sciences, 2021)
